From publication PMC5059718, “Leukocyte trafficking-associated vascular adhesion protein 1 is expressed and functionally active in atherosclerotic plaques” (Scientific Reports, 2016)
Bridge positions count the residues as written; N and C are the ends. Peptide text beside a SMILES is read from it. * marks the point of attachment. DOTA = O=C(O)CN1CCN(CC(=O)O)CCN(CC(=O)*)CCN(CC(=O)O)CC1; AEEA = NCCOCCOCC(=O)O

Legend:
[1] = Body weight and plasma lipids after 4-week VAP-1 inhibitor treatment; assay type: in vivo, mouse (LDLR−/−ApoB100/100); conditions: mean ± SD
Method: (§1) The second phase examined the role of VAP-1 in atherosclerotic plaques. Twenty-five LDLR^−/−ApoB^100/100 mice were treated with a VAP-1 inhibitor (LJP1586, Z-3-fluoro-2-(4-methoxybenzyl)allylamine hydrochloride; a kind gift from M. Linnik, La Jolla Pharmaceuticals, San Diego, CA, USA), or with saline. At the age of 2 months, mice were shifted to a high-fat diet for 2 months prior to the start of 4-week treatment, during which they were on normal chow. All mice were housed in an animal facility under standard conditions (12 h light/dark cycle) and allowed access to food and water ad libitum.
During the 4 week treatment period, LDLR^−/−ApoB^100/100 mice received thrice-weekly intraperitoneal (i.p.) injections of a small molecular VAP-1 inhibitor, LJP1586 (Z-3-fluoro-2-(4-methoxybenzyl)allylamine hydrochloride; 0.5 mg/mL diluted in PBS; a kind gift from M. Linnik, La Jolla Pharmaceuticals, San Diego, CA, USA) at a dose of 5 mg/kg. Mice injected with the physiological saline alone (200 μL) served as negative controls. After treatment, all mice were sacrificed and the hearts were collected, formalin-fixed, and paraffin-embedded. Tissues were then cut transversely into 5 μm sections at the level of the coronary ostia. The areas of intima and media were outlined in sections stained with Movat’s pentachrome, and the intima-to-media ratio for each mouse was determined with ImageJ as described previously. Adjacent sections were stained with an anti-mouse Mac-3 antibody to detect activated macrophages in the intima as described above. […]
Total cholesterol (CHOD-PAP 1489232 kit; Roche Diagnostics GmbH, Mannheim, Germany), choline-containing phospholipids (990–54009; Wako Chemicals GmbH, Neuss, Germany and/or Diagnostic Systems, Holzheim, Germany), and triglycerides (GPO-PAP 1488872 kit; Roche Diagnostics GmbH) were measured using fully enzymatic methods.

[2] = tested on: broad panel of receptors and enzymes, including monoamine oxidases A and B; conditions: cited from earlier work
From the text: (§2) The adhesive function of VAP-1 can be inhibited by […]. Inhibiting VAP-1 reduces the migration of lymphocytes, granulocytes, and monocytes into inflamed tissues; it also reduces pathological angiogenesis in many animal models by abrogating monocyte/macrophage infiltration.

[3] = tested on: VAP-1; conditions: mouse VAP-1; cited from earlier work
From the text: as §2

[4] = target: T1, VAP-1 (Mus musculus, UniProt O70423); assay: 4-week VAP-1 inhibitor treatment: plaque macrophages and intima-to-media ratio; assay type: in vivo, mouse (LDLR−/−ApoB100/100)
T1 construct: VAP-1 was expressed on endothelial cells lining inflamed atherosclerotic lesions; from tissue; host or cells: living mice (LDLR-/-ApoB100/100, Jackson strain #003000; C57BL/6N controls); aorta, atherosclerotic plaque endothelium, adipocytes
T1 sequence (O70423 1-765): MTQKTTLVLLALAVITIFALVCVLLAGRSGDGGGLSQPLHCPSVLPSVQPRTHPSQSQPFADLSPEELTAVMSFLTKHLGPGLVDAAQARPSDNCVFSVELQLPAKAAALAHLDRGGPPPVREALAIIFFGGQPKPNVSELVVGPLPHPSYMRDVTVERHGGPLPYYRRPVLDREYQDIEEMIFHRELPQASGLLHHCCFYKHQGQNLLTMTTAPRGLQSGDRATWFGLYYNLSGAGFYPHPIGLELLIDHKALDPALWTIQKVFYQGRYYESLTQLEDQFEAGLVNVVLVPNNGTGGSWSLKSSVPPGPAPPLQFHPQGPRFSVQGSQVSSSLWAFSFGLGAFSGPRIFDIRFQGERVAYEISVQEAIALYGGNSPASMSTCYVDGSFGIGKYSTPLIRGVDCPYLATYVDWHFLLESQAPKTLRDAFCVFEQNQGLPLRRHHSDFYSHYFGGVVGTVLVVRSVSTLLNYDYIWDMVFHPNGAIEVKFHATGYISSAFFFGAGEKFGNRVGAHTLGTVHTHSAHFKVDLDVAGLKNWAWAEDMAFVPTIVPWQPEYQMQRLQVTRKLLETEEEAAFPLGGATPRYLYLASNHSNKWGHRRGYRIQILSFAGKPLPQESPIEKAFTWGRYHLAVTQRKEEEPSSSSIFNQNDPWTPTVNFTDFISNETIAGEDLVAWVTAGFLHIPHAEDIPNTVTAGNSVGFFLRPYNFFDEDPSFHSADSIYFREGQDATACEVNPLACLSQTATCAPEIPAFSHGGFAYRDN
Method: as §1
During the 4 week treatment period, LDLR^−/−ApoB^100/100 mice received thrice-weekly intraperitoneal (i.p.) injections of a small molecular VAP-1 inhibitor, LJP1586 (Z-3-fluoro-2-(4-methoxybenzyl)allylamine hydrochloride; 0.5 mg/mL diluted in PBS; a kind gift from M. Linnik, La Jolla Pharmaceuticals, San Diego, CA, USA) at a dose of 5 mg/kg. Mice injected with the physiological saline alone (200 μL) served as negative controls. After treatment, all mice were sacrificed and the hearts were collected, formalin-fixed, and paraffin-embedded. Tissues were then cut transversely into 5 μm sections at the level of the coronary ostia. The areas of intima and media were outlined in sections stained with Movat’s pentachrome, and the intima-to-media ratio for each mouse was determined with ImageJ as described previously. Adjacent sections were stained with an anti-mouse Mac-3 antibody to detect activated macrophages in the intima as described above. Sections of aortic ostium were used to determine the area of plaque occupied by macrophages in each mouse because the ostium is easily located due to the presence of valves; it is therefore the most reliable place to compare plaque deposition in individual mice.

[5] = target: T1, VAP-1; parameters: species or system mouse (LDLR−/−ApoB100/100; C57BL/6N); conditions: in vivo
Method: Mice (n = 5) then received an injection of [^68Ga]DOTA-Siglec-9 (22 ± 9 MBq) and were then subjected to subsequent ex vivo biodistribution and autoradiography analyses.
The distribution of [^68Ga]DOTA-Siglec-9 in the aorta was examined in more detail using autoradiography, as described previously. Briefly, after gamma counting, excised aortas were frozen in isopentane, and sequential longitudinal cryosections (20 and 8 μm) were cut using a cryomicrotome at −15 °C. Sections were then thaw-mounted onto microscope slides. […]
The 20 μm sections were stained with hematoxylin and eosin and scanned with a Pannoramic 250 Flash slide scanner (3DHISTECH Ltd.), and morphology was examined using Pannoramic Viewer 1.15 software (3DHISTECH Ltd.). After carefully superimposing the autoradiographs and hematoxylin-eosin staining images, the concentration of ^68Ga-radioactivity was measured in the following ROI: 1) plaques (excluding media); 2) normal vessel wall (no lesion formation); and 3) adventitia (mainly adipose tissue around the aorta). The results were expressed as count densities (photostimulated luminescence per square millimeter; PSL/mm^2) using Tina 2.1 software (Raytest Isotopemessgeräte GmbH, Straubenhardt, Germany). […] In total, […] (417 in plaques, 478 in normal vessel walls, and 347 in adventitia) were analyzed in 27 atherosclerotic and 20 control mice. […]

[6] = tested on: T2, VAP-1; assay: in vivo; parameters: species or system mouse (LDLR−/−ApoB100/100; C57BL/6N); conditions: total radioactivity
T2 construct: VAP-1 was expressed on endothelial cells lining inflamed atherosclerotic lesions; from tissue; host or cells: living mice (LDLR-/-ApoB100/100, Jackson strain #003000; C57BL/6N controls); aorta, atherosclerotic plaque endothelium, adipocytes
Method: (§3) Mice (LDLR^−/−ApoB^100/100, n = 22; C57BL/6N, n = 20) under isoflurane anesthesia were i.v. injected with [^68Ga]DOTA-Siglec-9 (19 ± 5 MBq). […] The thoracic aorta was excised and rinsed in saline to remove blood. Aorta, blood, heart, and femoral muscle were weighed, and radioactivity was measured in a gamma counter (Triathler 3″, Hidex, Turku, Finland). Hearts were preserved in formalin for further characterization of plaques in the aortic root. The ex vivo biodistribution results were expressed as a percentage of the injected radioactivity dose per gram of tissue (%IA/g). The radioactivity remaining in the tail was compensated for. […] Mice (n = 5) then received an injection of [^68Ga]DOTA-Siglec-9 (22 ± 9 MBq) and were then subjected to subsequent ex vivo biodistribution and autoradiography analyses.

[7] = target: T1, VAP-1; assay: in vivo; parameters: species or system mouse (LDLR−/−ApoB100/100; C57BL/6N); conditions: mouse
Method: as §3

Compound	Body weight ([1]; LJP1586-treated LDLR−/−ApoB100/100 mice (n = 15), P = 0.065 vs saline) [g]	Weight, female ([1]; LJP1586 group, female LDLR−/−ApoB100/100 mice (n = 8)) [g]	Weight, male ([1]; LJP1586 group, male LDLR−/−ApoB100/100 mice (n = 7)) [g]	selectivity for VAP-1 [2]	IC50 [3] [nM]	reduction of Mac-3-positive macrophages in atherosclerotic plaques compared with the saline group ([4]; LJP1586 5 mg/kg i.p. thrice weekly for 4 weeks, P < 0.0001) [%]	intima-media ratio (plaque size) ([4]; LJP1586 5 mg/kg i.p. thrice weekly for 4 weeks, n = 15, aortic ostium, mean ± SD (saline 1.5 ± 0.6; P = 0.15))	areal percentage of the aortic plaque occupied by Mac-3-positive macrophages ([4]; LJP1586 5 mg/kg i.p. thrice weekly for 4 weeks, n = 15, aortic ostium, mean ± SD (saline 15% ± 5.1%))	effect on plaque size, as determined by the intima-media ratio ([4]; LJP1586 for 4 weeks vs saline)	Plaque-to-adventitia ratio (autoradiography) [5] [P < 0.0001]	Plaque-to-wall ratio (autoradiography) [5] [P < 0.0001]	tissue uptake at 25 min ([6]; C57BL/6N, mouse, iv, uptake by the whole aorta) [%ID/g]	tissue uptake at 25 min ([6]; LDLR−/−ApoB100/100, mouse, iv, radioactivity concentration in the blood) [%ID/g]	tissue uptake at 25 min ([6]; LDLR−/−ApoB100/100, mouse, iv, uptake by the whole aorta) [%ID/g]	tissue uptake at 25 min ([6]; LDLR−/−ApoB100/100, mouse, radioactivity concentration in the blood with competition) [%ID/g]	tissue uptake at 25 min ([6]; LDLR−/−ApoB100/100, mouse, uptake by the whole aorta with competition) [%ID/g]	aorta-to-blood ratio on prolonging the accumulation time-point to 90 min [7]	aorta-to-muscle ratio [7]	aorta-to-muscle ratio with competition [7]
COc1ccc(C/C(=C/F)CN)cc1.Cl [LJP1586, Z-3-fluoro-2-(4-methoxybenzyl)allylamine hydrochloride]	28 ± 4.5	25 ± 1.9	33 ± 1.7	has been confirmed	4	46	1.9 ± 0.8	8.2% ± 3.5%	no effect	–	–	–	–	–	–	–	–	–	–
CC(C)C[C@@H]1NC(=O)CNC(=O)[C@H](CCCNC(=N)N)NC(=O)[C@H](Cc2c[nH]c3ccccc23)NC(=O)[C@H](CO)NC(=O)[C@H](CC(C)C)NC(=O)[C@H](CO)NC(=O)[C@H](CC(C)C)NC(=O)[C@H](CCCNC(=N)N)NC(=O)[C@H](C)NC(=O)[C@@H](NC(=O)COCCOCCNC(=O)CN2CCN(CC(=O)O)CCN(CC(=O)O)CCN(CC(=O)O)CC2)CSSC[C@@H](C(=O)N2CCC[C@H]2C(=O)N[C@@H](CO)C(=O)N[C@@H](CCCCN)C(=O)O)NC(=O)[C@H](CC(C)C)NC(=O)[C@H]([C@@H](C)O)NC1=O [[^68Ga]DOTA-Siglec-9, metal not drawn] ({DOTA-AEEA}-CARLSLSWRGLTLCPSK-OH; disulfide 1-14)	–	–	–	–	–	–	–	–	–	1.8 ± 0.35	2.1 ± 0.43	0.46 ± 0.1	3 ± 1.3	0.83 ± 0.33	2.6 ± 0.9	0.48 ± 0.066	did not improve	1.7 ± 0.59	1.1 ± 0.38
